Results from patent publication US20150284438A1 (BIOVALENCE SDN BHD, published 2015).

Key:
[1] = molecular target: T1, DEN2 cNS2B-NS3pro complex (Dengue virus 2 (DEN2 / DENV-2), UniProt P14340 1394-1440; P14340 1476-1660)
T1 sequence 1: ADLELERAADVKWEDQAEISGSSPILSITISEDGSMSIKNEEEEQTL
T1 sequence 2: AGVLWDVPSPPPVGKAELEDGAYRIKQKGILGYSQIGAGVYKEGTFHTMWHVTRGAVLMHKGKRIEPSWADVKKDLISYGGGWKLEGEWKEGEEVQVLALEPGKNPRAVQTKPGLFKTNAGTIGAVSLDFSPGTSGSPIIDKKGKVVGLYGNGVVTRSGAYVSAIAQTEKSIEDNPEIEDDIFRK

[2] = molecular target: T1, DEN2 cNS2B-NS3pro complex; experiment: cell-based or functional assay

B1: RetroMAD1 (other)
chain: MGRICRCICGRGICRCICGVPGVGVPGVGGATGSDVNFDLSTATAKTYTKFIEDFRATLPFSHKVYDIPLLYSTISDSRRFILLDLTSYAYETISVAIDVTNVYVVAYRTRDVSYFFKESPPEAYNILFKGTRKITLPYTGNYENLQTAAHKIRENIDLGLPALSSAITTLFYYNAQSAPSALLVLIQTTAEAARFKYIERHVAKYVATNFKPNLAIISLENQWSALSKQIFLAQNQGGKFRNPVDLIKPTGERFQVTNVDSDVVKGNIKLLLNSRASTADENFITTMTLLGESVVEFPWALWKTMLKELGTMALHAGKAALGAAADTISQGTQVPGVGVPGVGKLAAALEHHHHHH
In the case of B1, the Ki [1] is reported as 2.49 µM and the “IC50 of NS2B-NS3 protease inhibition” value [2] is reported as 4.99 µM.
